# Literature values in article PMC11178655, “Dosimetry and pharmacokinetics of [^177Lu]Lu-satoreotide tetraxetan in patients with progressive neuroendocrine tumours” (European Journal of Nuclear Medicine and Molecular Imaging, 2024).
# Key:
# patients with NETs = details: human, in vivo; cited from earlier work
# Text: In the present study, we observed tumour ADCs of 5.0 Gy/GBq after cycle 1 and 4.0 Gy/GBq after cycle 3. These tumour ADCs are consistent with previously reported findings from a direct comparison of [^177Lu]Lu-satoreotide tetraxetan and [^177Lu]Lu-DOTA-TATE in the same tumours and patients in a cross-over design, which reported median tumour dose of [^177Lu]Lu-satoreotide tetraxetan of 7.0 Gy/GBq (range: 4.2–29 Gy/GBq), 3.5 times greater than the median tumour dose of [^177Lu]Lu-DOTA-TATE [22]. However, it should be noted that median tumour dose in this pilot study was calculated from a limi ... || The median ADC of [^177Lu]Lu-satoreotide tetraxetan for the bone marrow using a blood-based approach was lower than reported in other [^177Lu]Lu-satoreotide tetraxetan studies. The result is, however, similar to the mean blood-based radiation ADCs for the bone marrow reported for [^177Lu]Lu-DOTA-TATE [32].
# [1] = in vivo; cited from earlier work
# Text: In addition, consistent with their specific binding to SSTR, both [^177Lu]Lu-satoreotide tetraxetan and [^177Lu]Lu-DOTA-TATE predominantly show uptake in tumours, followed by the kidneys, spleen, and liver.
substance,measurement,setting,value
[^177Lu]Lu-DOTA-TATE,Blood-based bone marrow ADC,patients with NETs,≤ 0.02 Gy/GBq
same,Image-based bone marrow ADC,patients with NETs,up to 0.06 Gy/GBq
same,Median absorbed dose to the tumour,patients with NETs,4.6 Gy/GBq
same,Mean terminal blood half-life,[1],72 h
